The source of these data is US20230167177A1 (WUXI BIOLOGICS IRELAND, published 2023).

A word on the EC50: it is the midpoint of the concentration-response curve. A higher EC50 goes with a need for much substance. Usually IC50 stands for the concentration needed to halve the response being measured. A low value points to greater potency. Usually Kd stands for the concentration at which binding is half-saturated. Read a low Kd as higher affinity. What is called koff is a measure of how fast the partners let go of each other. A lower koff goes with slow dissociation. In general, kon refers to the second-order rate constant of association. The low end stands for slower complex formation, the high end for faster complex formation.

Assay [1] concerns the target T1, human CTLA-4 on transfected cells (human, UniProt P16410 36-223).
T1 construct: whole, on cells; also called cell surface human CTLA-4; hCTLA4 transfected cells
The assay is described as follows: FACS on human CTLA-4 expressing cells. As to the method:
(§1) For FACS binding, engineered human CTLA-4 expressing cells were seeded at 1×10⁵ cells/well in U-bottom 96-well plates (COSTAR 3799). After centrifugation at 1500 rpm for 4 minutes at 4° C., the supernatants were moved and the serial dilutions of antibodies in 1% BSA-DPBS were added to the cells. The plates were incubated at 4° C. for 1 hour. […] The binding of the antibodies to the cells was tested by flow cytometry and the mean fluorescence intensity (MFI) was analyzed by FlowJo.

For assay [2], the target named is T2, cynomolgus CTLA-4 ECD protein (in house) (Macaca fascicularis (cynomolgus monkey), UniProt G7PL88 36-161).
T2 construct: also called immobilized cyno CTLA-4 ECD protein; cyno CTLA4 ECD protein; not shown: C-terminal tag: 6xHis or Fc
As to the kind of experiment: ELISA, cyno CTLA4 ECD coated at 1.0 µg/ml. As for the experimental part: (§2) After blocking with 2% BSA-PBS, serial diluted antibodies were added into each well and incubated for 1 hour at room temperature. HRP-labeled goat anti-human IgG (Bethyl A80-304P) were used as the secondary antibody and incubated for 1 hour. The color was developed by TMB substrate, and then stopped by 2N HCl. The absorbance was read at 450 nm using a Microplate Spectrophotometer (SpectraMax® M5e).
(§3) The binding of testing antibodies to […] was assessed by ELISA and FACS as the described above. […] For FACS binding, engineered Cynomolgus CTLA4 expressing cell pool was used.
(An ELISA detects its analyte on a solid surface through an enzyme-linked reagent.)

The target of assay [3] is T3, human CTLA-4 ECD protein (in house) (human, UniProt P16410 36-161).
T3 construct: extracellular domain; also called immobilized human CTLA-4 ECD protein; hCTLA-4; not shown: 6xHis or Fc tag
The assay is described as follows: ELISA, human CTLA4 ECD coated at 1.0 µg/ml. As to the method:
as §2

Assay [4] has as its target T4, cynomolgus CTLA-4 on transfected cells (Macaca fascicularis (cynomolgus monkey), UniProt G7PL88 36-223).
T4 construct: also called cell surface cyno CTLA-4; Cynomolgus CTLA4 expressing cell pool
As to the kind of experiment: FACS on cynomolgus CTLA4 expressing cell pool. As for the experimental part: as §1, §3

Assay [5] concerns the target T3, human CTLA-4 ECD protein (in house). As to the kind of experiment: competition ELISA, hCTLA4 ECD coated; competitor his-tagged hCD80. As to the method:
(§4) After washing with PBST, biotin-labeled anti-His mAb (GenScript-A00613) was added and incubation 1 hour. […] The color reaction was developed by TMB substrate, and then stopped by 2N HCl. The absorbance was read at 450 nm using a Microplate Spectrophotometer (SpectraMax® M5e).

Assay [6] shares this target. The assay is described as follows: competition ELISA, hCTLA4 ECD coated; competitor his-tagged hCD86. As for the experimental part:
as §4

Another assay deals with T5, hBTLA.His (human, UniProt Q7Z6A9 31-157, limits assumed).
T5 construct: not shown: His tag
As to the kind of experiment: ELISA on coated BTLA.His, detected with HRP goat anti-human IgG. As for the experimental part:
(§5) After blocking with 2% BSA-PBS, 10 μg/ml and 1.0 μg/ml of testing antibodies were respectively added into the plates and incubated for 1 hour at room temperature. The secondary antibody HRP-labeled goat anti-human IgG (Bethyl A80-304P) was then added and incubated for 1 hour. Washes with PBST were performed between each step. The color reaction was developed by TMB substrate, and then stopped by 2N HCl. The absorbance was read at 450 nm using a Microplate Spectrophotometer (SpectraMax® M5e).

In the next assay the target is T6, hICOS.mFC (human, UniProt Q9Y6W8 21-140).
T6 construct: not shown: mFc tag
T6 sequence (looked up): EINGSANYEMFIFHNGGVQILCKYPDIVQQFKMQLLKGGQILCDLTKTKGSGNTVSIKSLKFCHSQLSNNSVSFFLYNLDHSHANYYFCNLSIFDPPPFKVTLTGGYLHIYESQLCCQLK
As to the kind of experiment: ELISA on coated hICOS.mFc, detected with HRP goat anti-human IgG. As for the experimental part:
as §5

In assay [7] the target is T3, human CTLA-4 ECD protein (in house). The assay is described as follows: competition FACS, biotinylated hCTLA4 ECD; competitor hCD80 on transfected cells. As to the method: (§6) After washing, streptavidin PE (BD Pharmingen-554061) was added to the cells and incubated at 4° C. for 1 hour. The fluorescence values were measured by flow cytometry and analyzed by FlowJo.
The target is the same in assay [8]. The assay is described as follows: competition FACS, biotinylated hCTLA4 ECD; competitor hCD86 on transfected cells. As for the experimental part:
as §6

Assay [9] has as its target T1, human CTLA-4 on transfected cells. The assay is described as follows: FACS on CTLA-4 transfected cells; antibody incubated in human serum at 37 C for 1 day. As to the method:
(§7) Testing antibodies were incubated in freshly isolated human serum (serum content >90%) at 37° C. On indicated time points, an aliquot of serum treated sample was removed from the incubator and snap frozen in liquid nitrogen, and then stored at −80° C. until test. The samples were quickly thawed immediately prior to the stability test. Serial dilutions of antibodies were incubated with CTLA-4 transfected cells for 1 hour at 4° C. After washing, FITC conjugated goat anti-human IgG antibody (Jackson ImmunoResearch) was added to the cells and incubated at 4° C. for 1 hour. Finally, the cells were washed and resuspended in 1% BSA-PBS. The MFI fluorescence values were measured by flow cytometry and analyzed by FlowJo.

For assay [10] the target is unchanged. The assay is described as follows: FACS on CTLA-4 transfected cells; antibody incubated in human serum at 37 C for 0 days. As to the method: as §7
The target is the same in assay [11]. The assay is described as follows: FACS on CTLA-4 transfected cells; antibody incubated in human serum at 37 C for 4 days. As to the method: as §7
Assay [12] has the same target. As to the kind of experiment: FACS on CTLA-4 transfected cells; antibody incubated in human serum at 37 C for 7 days. As for the experimental part: as §7
The target is the same in assay [13]. The assay is described as follows: FACS on CTLA-4 transfected cells; antibody incubated in human serum at 37 C for 14 days. As to the method:
as §7

The target in the next assay is T7, hPD-1.mFc (human, UniProt Q15116 25-170).
T7 construct: not shown: mFc tag
As to the kind of experiment: ELISA on coated hPD1 (sheet prints 'hPD1.His', text says hPD-1.mFc), detected with HRP goat anti-human IgG. As to the method: as §5

The next assay has as its target T8, hCD28.mFc (human, UniProt P10747 19-152).
T8 construct: not shown: mFc tag
As to the kind of experiment: ELISA on coated hCD28 (sheet prints 'hCD28.His', text says hCD28.mFc), detected with HRP goat anti-human IgG. As for the experimental part:
as §5

Assay [14] deals with T3, human CTLA-4 ECD protein (in house). The assay is described as follows: competition (epitope binning) ELISA on coated human CTLA4 protein; competitor 0.02 ug/ml W316-BMK1-Biotin, detected with streptavidin-HRP. As for the experimental part:
After washing, HRP-conjugated streptavidin were added and incubated for 1 hour. The color was developed by dispensing TMB substrate, and then stopped by 2N HCl. The absorbance was read at 450 nm using a Microplate Spectrophotometer (SpectraMax® M5e).

Assay [15] concerns the target T1, human CTLA-4 on transfected cells. The assay is described as follows: cell-based or functional assay.
The target in assay [16] is T4, cynomolgus CTLA-4 on transfected cells. The assay is described as follows: FACS affinity on cyno CTLA-4 transfected cells (cPro1), quantitative beads. As to the method: (§8) Human CTLA-4 or cyno CTLA-4 transfected cells were plated into 96-well U-bottom plates (BD) at a density of 5×10⁴ cells/well. Testing antibodies were 1:2-fold serially diluted in 1% BSA-PBS and incubated with the cells at 4° C. for 1 hr. After centrifugation at 1500 rpm for 4 min, the supernatant was discarded. The secondary antibody FITC conjugated goat anti-human IgG Fc (Jackson Immunoresearch Lab) was added and incubated at 4° C. in the dark for 30 min. The cells were then washed once and re-suspended in 1% BSA-PBS for the analysis by flow cytometry (BD CantoII). Fluorescence intensity was converted to bound molecules/cell based on the quantitative beads (Quantum™ MESF Kits, Bangs Laboratories). KD was calculated using Graphpad Prism5.

Assay [17] addresses T1, human CTLA-4 on transfected cells. The assay is described as follows: FACS affinity on human CTLA-4 transfected cells (hPro1), quantitative beads. As for the experimental part: as §8
For assay [18], the target named is T9, human CTLA-4 ECD, His-tagged (human, UniProt P16410 36-161).
T9 construct: extracellular domain; also called W316.hprol.ECD.his; hCTLA-4.His; not shown: hexa-histidine (6xHis) tag
The assay is described as follows: SPR (Biacore T200), antibody captured by anti-human IgG Fc, CTLA-4 ECD his as analyte. As for the experimental part: The experiment was to measure the on-rate constant (ka) and off-rate constant (kd) of the antibodies to CTLA-4 ECD based on SPR technology. The affinity constant (KD) is thus consequently determined. Biacore T200, Series S Sensor Chip CM5, Amine Coupling Kit, and 10XHBS-EP were from GE Healthcare. […] In immobilization step, the activation buffer was prepared by mixing 400 mM EDC and 100 mM NHS immediately prior to injection. The CM5 sensor chip was activated for 420 s with the activation buffer. 30 μg/mL of goat anti-human IgG Fc antibody in 10 mM NaAc (pH 4.5) was then injected to Fc1-Fc4 channels for 200 s at a flow rate of 5 μL/min. The chip was deactivated by 1 M ethanolamine-HCl (GE). Then the antibodies were captured on the chip. Briefly, 4 μg/mL antibodies in running buffer (HBS-EP+) was injected individually to Fc3 channel for 30 s at a flow rate of 10 μL/min. […] Regeneration buffer (10 mM Glycine pH 1.5) was injected at 10 μL/min for 30 s following every dissociation phase.

Changes are numbered by the printed parent chain.

T3 sequence (P16410 36-161): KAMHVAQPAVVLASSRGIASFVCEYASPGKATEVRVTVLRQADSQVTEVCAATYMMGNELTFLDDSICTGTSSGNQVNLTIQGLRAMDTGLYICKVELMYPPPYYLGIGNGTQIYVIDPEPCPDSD
T9 sequence (P16410 36-161): as above
T1 sequence (P16410 36-223): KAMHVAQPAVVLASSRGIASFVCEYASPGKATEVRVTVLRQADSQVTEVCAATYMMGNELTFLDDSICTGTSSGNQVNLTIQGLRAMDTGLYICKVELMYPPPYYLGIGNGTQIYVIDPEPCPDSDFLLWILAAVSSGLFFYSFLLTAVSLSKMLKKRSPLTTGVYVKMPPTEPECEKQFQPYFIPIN
T4 sequence (G7PL88 entry or part of it limits assumed): as the sequence (P16410 36-223) above, with S14N, I18T, L106M counted along it
T2 sequence (G7PL88 entry or part of it limits assumed): as the sequence (P16410 36-161) above, with S14N, I18T, L106M counted along it
T7 sequence (Q15116 25-170): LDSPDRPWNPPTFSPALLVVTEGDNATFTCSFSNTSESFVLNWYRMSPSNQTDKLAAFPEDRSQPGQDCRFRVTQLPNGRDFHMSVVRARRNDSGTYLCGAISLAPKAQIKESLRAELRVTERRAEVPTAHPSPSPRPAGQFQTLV

B1: W3166-z13 (Fc fusion)
chain: QVQLVESGGGLVQPGGSLRLSCAASGRTFSSYAMGWFRQAPGMEREFVASIRWSDQTTYVPNSVKGRFTISRDNSKNTLYLQMNSLRPEDTAVYYCATGPTRLSFYSGNYRTYDSWGQGTLVTVSS
notes: Tested as VHH linked to human IgG1 Fc; also called humanized VHH antibody W3166-z13; W3166-z13 VHH fused with Fc of human IgG1; not shown: human IgG1 Fc region
Consider B1, for which the EC50 in assay [1] was 0.325 nM; in assay [2], 0.0732 nM; in assay [3], 0.0983 nM; in assay [4], 1.5 nM; in [9], 0.221 nM; in [10], 0.214 nM. Also, the EC50 in assay [11] was found to be 0.237 nM; in assay [12], 0.223 nM; in assay [13], 0.244 nM. In addition, the IC50 was 1.1 nM in [5], 2.06 nM in assay [6], 0.109 nM in assay [7] and 0.22 nM in assay [8]. Also, the binding result with hBTLA.His, with hICOS.mFC, with hPD-1.mFc and with hCD28.mFc was “no binding (tested: 10 ug/ml)” each time. For the same molecule, the “IC50 (read off the curve)” value in assay [14] was around 3 nM.

B2: W3166-z17 (Fc fusion)
chain: B1 chain with L11V, M43K
notes: Tested as VHH linked to human IgG1 Fc; also called humanized VHH antibody W3166-z17; W3166-z17 VHH fused with Fc of human IgG1; not shown: human IgG1 Fc region
In the case of B2, in assay [15], the “EC50 in inducing ADCC effect” value was 0.247 nM. In addition, the EC50 in assay [1] was found to be 0.297 nM; in assay [2], 0.0401 nM; in assay [3], 0.0512 nM; in [4], 1.16 nM; in assay [9], 0.195 nM; in [10], 0.19 nM. Besides, the EC50 in assay [11] came out at 0.193 nM; in assay [12], 0.221 nM; in assay [13], 0.199 nM. Besides, the IC50 is 0.908 nM in [5], 1.67 nM in assay [6], 0.0786 nM in [7] and 0.163 nM in [8]. The binding result with hBTLA.His, with hICOS.mFC, with hPD-1.mFc and with hCD28.mFc was “no binding (tested: 10 ug/ml)” each time. Further, the Kd in [16] was found to be 0.14 nM; in assay [17], 0.049 nM; in assay [18], 3.13 nM. This molecule also showed a koff in [18] of 0.0015 s⁻¹. Besides, the kon in assay [18] is 481000 M⁻¹ s⁻¹. The “IC50 (read off the curve)” value in assay [14] was around 3 nM.
